PMC10087552, “Non‐canonical binding of the Chaetomium thermophilum PolD4 N‐terminal PIP motif to PCNA involves Q‐pocket and compact 2‐fork plug interactions but no 3_10 helix” (The Febs Journal, 2022)

Key:
human PCNA = settings: human PCNA–p12 PIP peptide interaction; ref [25]; read-out: dissociation constant (K D); cited from earlier work
Description: To examine the interaction between the Ct PolD4 PIP motif and Ct PCNA in greater detail and in the absence of GST, isothermal titration calorimetry (ITC) was used to determine the binding affinity of PCNA for a 15 amino acid synthetic PolD4 PIP peptide (sequence: ^21KHQSTLNFKHRVTKP^35) and the stoichiometry of the interaction (Fig. 4C). The dissociation constant (K D) was determined to be 22 ± 0.6 μM at 25 °C, broadly similar to that reported for the human PCNA–p12 PIP peptide interaction (38 ± 4 μM). The stoichiometry was determined to be 1 : 1 (i.e. 1 peptide : 1 PCNA protomer) indica ... || Three amino acids are key to interactions between Ct PolD4 and Ct PCNA: Gln23, Leu26 and Phe28. All three are strictly conserved in PolD4 proteins from fungal species closely related to C. thermophilum (Fig. 3). The sidechain of Gln23 inserts into the Q‐pocket on PCNA while the sidechains of Leu26 and Phe28 insert into the hydrophobic pocket located under the interdomain connector loop (IDCL) on the surface of PCNA (Figs 5 and 6A, upper left panel). The human p12 protein lacks the glutamine, equivalent to Gln23, that marks the start of the canonical PIP motif (Qxxψxxθθ), instead having a lysin ...

[1] = target: Chaetomium thermophilum PCNA (proliferating cell nuclear antigen) (Chaetomium thermophilum); assay: crystal structure; apo Ct PCNA; 0.1 M PTCP buffer pH 5.0, 25% PEG 1500; 2.34 Å, space group H3, a single chain in the asymmetric unit
[2] = target: Chaetomium thermophilum PCNA (proliferating cell nuclear antigen) (Chaetomium thermophilum); assay: crystal structure; co-crystallisation of Ct PCNA with the peptide; 0.2 M calcium acetate, 0.1 M sodium cacodylate pH 6.5, 36% PEG 300; 2.45 Å, space group P1, two trimers in the asymmetric unit
[3] = target: Chaetomium thermophilum PCNA (proliferating cell nuclear antigen) (Chaetomium thermophilum); assay: ITC; Ct PolD4 PIP peptide (400 uM) titrated into Ct PCNA (30 uM) in the cell, 25 °C, 50 mM Tris-HCl, 50 mM NaCl, pH 8.0; single-site binding model; duplicate

For “RKRLITDSYPVV [human p12 PIP peptide, N‐terminal PIP motif peptide of the human Pol δ subunit p12 (PolD4)]”, the Kd (human PCNA) is given as 38 ± 4 µM.

For “Chaetomium thermophilum PCNA (proliferating cell nuclear antigen) (natural protein)”, the stoichiometry N [1] was 3 protomers and the stoichiometry N [2] was 3 protomers.

KHQSTLNFKHRVTKP [Ct PolD4 PIP peptide (residues 21-35 of Chaetomium thermophilum PolD4)] showed a Kd [3] of 22 µM and a stoichiometry N (peptide per PCNA protomer) [3] of 1.
